# In FireProtDB (doi:10.1093/protein/gzw068):
# B1: F82W, Q93D82 (parent)
# chain: MSTAIVTNVKHFGGMGSALRLSEAGHTVACHDESFKQKDELEAFAETYPQLKPMSEQEPAELIEAVTSAYGQVDVLVSNDIFAPEFQPIDKYAVEDYRGAVEALQIRPFALVNAVASQMKKRKSGHIIFITSATPFGPWKELSTYTSARAGACTLANALSKELGEYNIPVFAIGPNYLHSEDSPYFYPTEPWKTNPEHVAHVKKVTALQRLGTQKELGELVAFLASGSCDYLTGQVFWLAGGFPMIERWPGMPE
# Variants of: B1
# Details: Rhizobium radiobacter; pH 7.7; Thermal; CD; Phosphate 5mM; structure 1PWX; whole UniProt chain shown
Variant,Tm,"change of melting temperature, mutant - wild type (higher = more stable)"
MSTAIVTNVKHFGGMGSALRLSEAGHTVACHDESFKQKDELEAFAETYPQLKPMSEQEPAELIEAVTSAYGQVDVLVSNDIWAPEFQPIDKYAVEDYRGAVEALQIRPFALVNAVASQMKKRKSGHIIFITSATPFGPWKELSTYTSARAGACTLANALSKELGEYNIPVFAIGPNYLHSEDSPYFYPTEPWKTNPEHVAHVKKVTALQRLGTQKELGELVAFLASGSCDYLTGQVFWLAGGFPMIERWPGMPE [F82W],59 °C,-6 °C
MSTAIVTNVKHFGGMGSALRLSEAGHTVACHDESFKQKDELEAFAETYPQLKPMSEQEPAELIEAVTSAYGQVDVLVSNDIFAPEFQPIDKYAVEDYRGAVEALQIRPFALVNAVASQMKKRKSGHIIFITSATPFGPWKELSTYTSARAGACTLANALSKELGEYNIPVFAIGPNYLHSEDSPYFYPTEPWKTNPEHVAHVKKVTALQRLGTQKELGNLVAFLASGSCDYLTGQVFWLAGGFPMIERWPGMPE [E219N],63.5 °C,-1.5 °C
MSTAIVTNVKHFGGMGSALRLSEAGHTVACHDESFKQKDELEAFKETYPQLKPMSEQEPAELIEAVTSAYGQVDVLVSNDIFAPEFQPIDKYAVEDYRGAVEALQIRPFALVNAVASQMKKRKSGHIIFITSATPFGPWKELSTYTSARAGACTLANALSKELGEYNIPVFAIGPNYLHSEDSPYFYPTEPWKTNPEHVAHVKKVTALQRLGTQKELGELVAFLASGSCDYLTGQVFWLAGGFPMIERWPGMPE [A45K],65.5 °C,0.5 °C
MSTAIVTNVKHFGGMGSALRLSEAGHTVACHDESFKQKDELEAFAETYPQLKPMSEQEPAELIEAVTSAYGQVDVLVSNDIFAPEFQPIDKYAVEDYRGAVEALQIRPFALVNAVASQMKKRKSGHIIFITSATPFGPWKELSTYTSARAGAITLANALSKELGEYNIPVFAIGPNYLHSEDSPYFYPTEPWKTNPEHVAHVKKVTALQRLGTQKELGELVAFLASGSCDYLTGQVFWLAGGFPMIERWPGMPE [C153I],60 °C,-5 °C
MSTAIVTNVKHFGGMGSALRLSEAGHTVACHDESFKQKDELEAFAETYPQLKPMSEQEPAELIEAVTSAYGQVDVLVSNDIFAPEFQPIDKYKVEDYRGAVEALQIRPFALVNAVASQMKKRKSGHIIFITSATPFGPWKELSTYTSARAGACTLANALSKELGEYNIPVFAIGPNYLHSEDSPYFYPTEPWKTNPEHVAHVKKVTALQRLGTQKELGELVAFLASGSCDYLTGQVFWLAGGFPMIERWPGMPE [A93K],70.5 °C,5.5 °C
MSTAIVTNVKHFGGMGSALRLSEAGHTVACHDESFKQKDELEAFAETYPQLKPMSEQEPLELIEAVTSAYGQVDVLVSNDIFAPEFQPIDKYAVEDYRGAVEALQIRPFALVNAVASQMKKRKSGHIIFITSATPFGPWKELSTYTSARAGACTLANALSKELGEYNIPVFAIGPNYLHSEDSPYFYPTEPWKTNPEHVAHVKKVTALQRLGTQKELGELVAFLASGSCDYLTGQVFWLAGGFPMIERWPGMPE [A60L],63 °C,-2 °C
MSTAIVTNVKHFGGMGSALRLSEAGHTVACHDESFKQKDELEAFAETYPQLKPMSEQEPAELIEAVTSAYGQVDVLVSNDIFAPEFQPIDKYAVEDYRGAVEALQIRPFALVNAVASQMKKRKSGHIIFITSATPWGPWKELSTYTSARAGACTLANALSKELGEYNIPVFAIGPNYLHSEDSPYFYPTEPWKTNPEHVAHVKKVTALQRLGTQKELGELVAFLASGSCDYLTGQVFWLAGGFPMIERWPGMPE [F136W],60.5 °C,-4.5 °C
MSTAIVTNVKHFGGMGSALRLSEAGHTVACHDESFKQKDELEAFAETYPQLKPMSEQNPAELIEAVTSAYGQVDVLVSNDIFAPEFQPIDKYAVEDYRGAVEALQIRPFALVNAVASQMKKRKSGHIIFITSATPFGPWKELSTYTSARAGACTLANALSKELGEYNIPVFAIGPNYLHSEDSPYFYPTEPWKTNPEHVAHVKKVTALQRLGTQKELGELVAFLASGSCDYLTGQVFWLAGGFPMIERWPGMPE [E58N],65 °C,0 °C
MSTAIVTNVKHFGGMGSALRLSEAGHTVACHDESFKQKDELEAFAETYPQLKPMSEQEPAELIEAVTSAYGQVDILVSNDIFAPEFQPIDKYAVEDYRGAVEALQIRPFALVNAVASQMKKRKSGHIIFITSATPFGPWKELSTYTSARAGACTLANALSKELGEYNIPVFAIGPNYLHSEDSPYFYPTEPWKTNPEHVAHVKKVTALQRLGTQKELGELVAFLASGSCDYLTGQVFWLAGGFPMIERWPGMPE [V75I],65 °C,0 °C
MSTAIVTNVKHFGGMGSALRLSEAGHTVACHDESFKQKDELEAFAETYPQLKPMSEQEPAELIEAVTSAYGQVDVLVSNDIFAPEFQPIDKYAVEDYRGAVEALQIRPFALVNAVASQMKKRKSGHIIFITSATPFGPWKELSTYTSARAGACTLARALSKELGEYNIPVFAIGPNYLHSEDSPYFYPTEPWKTNPEHVAHVKKVTALQRLGTQKELGELVAFLASGSCDYLTGQVFWLAGGFPMIERWPGMPE [N157R],60 °C,-5 °C
MSTAIVTNVKHFGGMGSALRLSEAGHTVACHDESFKQKDELEAFAETYPQLKPMSEQEPAELIEAVTSAYGQVDVLVSNDIFAPEFQPIDKYAVEDYRGAVEALQIRPFALVHAVASQMKKRKSGHIIFITSATPFGPWKELSTYTSARAGACTLANALSKELGEYNIPVFAIGPNYLHSEDSPYFYPTEPWKTNPEHVAHVKKVTALQRLGTQKELGELVAFLASGSCDYLTGQVFWLAGGFPMIERWPGMPE [N113H],63 °C,-2 °C
MSTAIVTNVKHFGGMGSALRLSEAGHTVACHDESFKQKDELEAFAETYPQLKPMSEQEPAELIEAVTSAYGQVDVLVSNDIFAPEFQPIDKYAVEDYRGAVEALQIRPFALVNAVASQMKKRKSGHIIFITSATPFGPWKELSTYTSARAGACTLANALSKELGEYNIPVFAIGPNYLHSEDSPYFYPTEPWKTNPEHVAHVKKVTALQRLGTQKELGELVAFLASGSADYLTGQVFWLAGGFPMIERWPGMPE [C229A],60.5 °C,-4.5 °C
MSTAIVTNVKHFGGMGSALRLSEAGHTVACHDESFKQKDELEAFAETYPQLKPMSEQEPRELIEAVTSAYGQVDVLVSNDIFAPEFQPIDKYAVEDYRGAVEALQIRPFALVNAVASQMKKRKSGHIIFITSATPFGPWKELSTYTSARAGACTLANALSKELGEYNIPVFAIGPNYLHSEDSPYFYPTEPWKTNPEHVAHVKKVTALQRLGTQKELGELVAFLASGSCDYLTGQVFWLAGGFPMIERWPGMPE [A60R],66.5 °C,1.5 °C
MSTAIVTNVKHFGGMGAALRLSEAGHTVACHDESFKQKDELEAFAETYPQLKPMSEQEPAELIEAVTSAYGQVDVLVSNDIFAPEFQPIDKYAVEDYRGAVEALQIRPFALVNAVASQMKKRKSGHIIFITSATPFGPWKELSTYTSARAGACTLANALSKELGEYNIPVFAIGPNYLHSEDSPYFYPTEPWKTNPEHVAHVKKVTALQRLGTQKELGELVAFLASGSCDYLTGQVFWLAGGFPMIERWPGMPE [S17A],65 °C,0 °C
MSTAIVTNVKHFGGMGSALRLSEAGHTVACHDESFKQKDELEAFAETYPQLKPMSEQEPAELIEAVTSAYGQVDVLVSNDIFAPEFQPIDKYAVEDYRGAVEALQIRPFALVNAVASQMKKRKSGHIIFITSATPFGPWKELSTYTSARAGACTLANALSKELGEYNIPVFAIGPNYLHSEDSPYFYPTEPWKTHPEHVAHVKKVTALQRLGTQKELGELVAFLASGSCDYLTGQVFWLAGGFPMIERWPGMPE [N195H],64.5 °C,-0.5 °C
MSTAIVTNVKHFGGMGSALRLSEAGHTVACHDESFKQKDELEAFAETYPQLKPMSEQEPAELIEAVTSAYGQVDVLVSNDIFQPEFQPIDKYAVEDYRGAVEALQIRPFALVNAVASQMKKRKSGHIIFITSATPFGPWKELSTYTSARAGACTLANALSKELGEYNIPVFAIGPNYLHSEDSPYFYPTEPWKTNPEHVAHVKKVTALQRLGTQKELGELVAFLASGSCDYLTGQVFWLAGGFPMIERWPGMPE [A83Q],65.5 °C,0.5 °C
MSTAIVTNVKHFGGMGSALRLSEAGHTVACHDESFKQKDELEAFAETYPQLKPMSEQEPAELIEAVTSAYGQVDVLVSNEIFAPEFQPIDKYAVEDYRGAVEALQIRPFALVNAVASQMKKRKSGHIIFITSATPFGPWKELSTYTSARAGACTLANALSKELGEYNIPVFAIGPNYLHSEDSPYFYPTEPWKTNPEHVAHVKKVTALQRLGTQKELGELVAFLASGSCDYLTGQVFWLAGGFPMIERWPGMPE [D80E],60 °C,-5 °C
MSTAIVTNVKHFGGMGSALRLSEAGHTVACHDESFKQKDELEAFAETYPQLKPMSEQEPAELIEAVTSAYGQVDVLVSNDIFAPEFQPIDKYAVEDYRGAVEALQIRPFALVNAVASQMKKRKSGHIIFITSATPFGPWKELSTYTSARAGACTLANALSKELGEYNIPVFAIGPNYLHSEDSPYFYPTEPWKTNPEHVAHVKKVTALQRLGDQKELGELVAFLASGSCDYLTGQVFWLAGGFPMIERWPGMPE [T213D],62 °C,-3 °C
MSTAIVTNVKHFGGMGSALRLSEAGHTVACHDESFKQKDELEAFAETYPQLKPMSEQEPAELIEAVTSAYGQVDVLVSNDIFAPEFQPIDKYAVEDYRGAVEALQIRPFALVNAVASQMKKRKSGHIIFITSATPFGPWKELSTYTSARAGACTLANALSFELGEYNIPVFAIGPNYLHSEDSPYFYPTEPWKTNPEHVAHVKKVTALQRLGTQKELGELVAFLASGSCDYLTGQVFWLAGGFPMIERWPGMPE [K161F],64 °C,-1 °C
MSTAIVTNVKHFGGMGSALRLSEAGHTVACHDESFKQKDELEAFAETYPQLKPMSEQEPAELIEAVTSAYGQVDVLVSNDIFAPEFQPIDKYAVEDYRGAVEALQIRPFALVNAVASQMKKRKSGHIIFITSATPFGPWKELSTYTSARAGACTLANALSKELGEYNIPVFAIGPNYLHSEDSPYFYPTEPWKTNPEYVAHVKKVTALQRLGTQKELGELVAFLASGSCDYLTGQVFWLAGGFPMIERWPGMPE [H198Y],62.5 °C,-2.5 °C
MSTAIVTNVKHFGGMGSALRLSEAGHTVACHDESFKQKDELEAFAETYPQLKPMSEQEPAELIEAVTSAYGQVDVLVSNDIFAPEFQPIDKYAVEDYRGAVEALQIRPFALVNAVASQMKKRKSGHIIFITSATPFGPWKELVTYTSARAGACTLANALSKELGEYNIPVFAIGPNYLHSEDSPYFYPTEPWKTNPEHVAHVKKVTALQRLGTQKELGELVAFLASGSCDYLTGQVFWLAGGFPMIERWPGMPE [S143V],59.5 °C,-5.5 °C
MSTAIVTNVKHFGGMGSALRLSEAGHTVACHDESFKQKDELEAFAETYPQLKPMSEQEPAELIEAVTKAYGQVDVLVSNDIFAPEFQPIDKYAVEDYRGAVEALQIRPFALVNAVASQMKKRKSGHIIFITSATPFGPWKELSTYTSARAGACTLANALSKELGEYNIPVFAIGPNYLHSEDSPYFYPTEPWKTNPEHVAHVKKVTALQRLGTQKELGELVAFLASGSCDYLTGQVFWLAGGFPMIERWPGMPE [S68K],65 °C,0 °C
MSTAIVTNVKHFGGMGSALRLSEAGHTVACHDESFKQKDELEAFAETYPQLKPMSEQEPAELIEAVTSAYGQVDVLVSNDIFAPEFQPIDKYAVEDYRGAVEALQIRPFALVNAVASQMKKRKSGHIIFITSATPFGPWKELSTYTSARAGANTLANALSKELGEYNIPVFAIGPNYLHSEDSPYFYPTEPWKTNPEHVAHVKKVTALQRLGTQKELGELVAFLASGSCDYLTGQVFWLAGGFPMIERWPGMPE [C153N],78.5 °C,13.5 °C
